According to paper PMC8596991 (Methods in molecular biology (Clifton, N.J.), 2020):

T1: Rrp41/Rrp45 heterodimer (S. cerevisiae, UniProt P46948 1-246; Q05636 1-305)
T1 sequence (looked up) 1: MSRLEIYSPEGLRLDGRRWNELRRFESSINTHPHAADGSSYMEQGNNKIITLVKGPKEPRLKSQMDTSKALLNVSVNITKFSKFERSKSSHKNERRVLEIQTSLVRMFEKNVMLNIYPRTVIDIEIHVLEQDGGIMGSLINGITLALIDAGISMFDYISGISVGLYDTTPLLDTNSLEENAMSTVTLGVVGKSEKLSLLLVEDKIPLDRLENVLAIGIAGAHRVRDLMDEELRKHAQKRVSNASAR
T1 sequence (looked up) 2: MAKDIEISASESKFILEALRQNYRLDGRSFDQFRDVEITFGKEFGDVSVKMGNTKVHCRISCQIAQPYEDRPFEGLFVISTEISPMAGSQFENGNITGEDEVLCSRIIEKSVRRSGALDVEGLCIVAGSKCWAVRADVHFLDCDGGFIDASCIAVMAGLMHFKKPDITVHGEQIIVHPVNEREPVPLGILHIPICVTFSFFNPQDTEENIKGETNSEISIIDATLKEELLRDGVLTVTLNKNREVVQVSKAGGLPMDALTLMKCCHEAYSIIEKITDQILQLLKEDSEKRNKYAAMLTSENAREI

B1: Rrp40 (natural protein, S. cerevisiae, UniProt Q08285 1-240, looked up)
chain: MSTFIFPGDSFPVDPTTPVKLGPGIYCDPNTQEIRPVNTGVLHVSAKGKSGVQTAYIDYSSKRYIPSVNDFVIGVIIGTFSDSYKVSLQNFSSSVSLSYMAFPNASKKNRPTLQVGDLVYARVCTAEKELEAEIECFDSTTGRDAGFGILEDGMIIDVNLNFARQLLFNNDFPLLKVLAAHTKFEVAIGLNGKIWVKCEELSNTLACYRTIMECCQKNDTAAFKDIAKRQFKEILTVKEE
B2: Csl4 (natural protein, S. cerevisiae, UniProt P53859 1-292, looked up)
chain: MACNFQFPEIAYPGKLICPQYGTENKDGEDIIFNYVPGPGTKLIQYEHNGRTLEAITATLVGTVRCEEEKKTDQEEEREGTDQSTEEEKSVDASPNDVTRRTVKNILVSVLPGTEKGRKTNKYANNDFANNLPKEGDIVLTRVTRLSLQRANVEILAVEDKPSPIDSGIGSNGSGIVAAGGGSGAATFSVSQASSDLGETFRGIIRSQDVRSTDRDRVKVIECFKPGDIVRAQVLSLGDGTNYYLTTARNDLGVVFARAANGAGGLMYATDWQMMTSPVTGATEKRKCAKPF
B3: Rrp4 (natural protein, S. cerevisiae, UniProt P38792 1-359, looked up)
chain: MSEVITITKRNGAFQNSSNLSYNNTGISDDENDEEDIYMHDVNSASKSESDSQIVTPGELVTDDPIWMRGHGTYFLDNMTYSSVAGTVSRVNRLLSVIPLKGRYAPETGDHVVGRIAEVGNKRWKVDIGGKQHAVLMLGSVNLPGGILRRKSESDELQMRSFLKEGDLLNAEVQSLFQDGSASLHTRSLKYGKLRNGMFCQVPSSLIVRAKNHTHNLPGNITVVLGVNGYIWLRKTSQMDLARDTPSANNSSSIKSTGPTGAVSLNPSITRLEEESSWQIYSDENDPSISNNIRQAICRYANVIKALAFCEIGITQQRIVSAYEASMVYSNVGELIEKNVMESIGSDILTAEKMRGNGN

target: T1, Rrp41/Rrp45 heterodimer; test: SEC

Binder	binding result
B1	binds
B2	binds
B3	binds
